One experiment addresses T1, mouse DLL3 protein (mouse, UniProt O88516 33-490, limits assumed).
T1 construct: also called murine DLL3
T1 sequence (looked up): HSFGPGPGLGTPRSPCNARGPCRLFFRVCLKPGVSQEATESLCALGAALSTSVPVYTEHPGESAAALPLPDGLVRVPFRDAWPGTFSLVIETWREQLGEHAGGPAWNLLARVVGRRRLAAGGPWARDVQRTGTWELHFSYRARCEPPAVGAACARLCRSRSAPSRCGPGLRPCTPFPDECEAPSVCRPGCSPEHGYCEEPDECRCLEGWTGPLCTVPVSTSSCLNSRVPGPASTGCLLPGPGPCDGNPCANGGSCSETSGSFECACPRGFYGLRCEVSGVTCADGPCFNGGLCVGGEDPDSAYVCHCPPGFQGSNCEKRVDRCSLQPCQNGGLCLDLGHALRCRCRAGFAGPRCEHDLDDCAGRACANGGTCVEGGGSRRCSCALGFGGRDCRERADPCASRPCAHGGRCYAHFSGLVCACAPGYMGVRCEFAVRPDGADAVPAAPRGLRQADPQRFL
Kind of experiment: Octet (DLL3 on AR2G tips), ELISA and FACS; values only in FIG. 3. On the technique in general: BLI is a label-free optical method that tracks binding on a fibre tip over time.

In the next experiment the target is T2, mouse DLL3 on CHO cells (mouse, UniProt O88516 33-592).
T2 construct: whole, on cells; also called CHO cells expressing mouse DLL3
T2 sequence (looked up): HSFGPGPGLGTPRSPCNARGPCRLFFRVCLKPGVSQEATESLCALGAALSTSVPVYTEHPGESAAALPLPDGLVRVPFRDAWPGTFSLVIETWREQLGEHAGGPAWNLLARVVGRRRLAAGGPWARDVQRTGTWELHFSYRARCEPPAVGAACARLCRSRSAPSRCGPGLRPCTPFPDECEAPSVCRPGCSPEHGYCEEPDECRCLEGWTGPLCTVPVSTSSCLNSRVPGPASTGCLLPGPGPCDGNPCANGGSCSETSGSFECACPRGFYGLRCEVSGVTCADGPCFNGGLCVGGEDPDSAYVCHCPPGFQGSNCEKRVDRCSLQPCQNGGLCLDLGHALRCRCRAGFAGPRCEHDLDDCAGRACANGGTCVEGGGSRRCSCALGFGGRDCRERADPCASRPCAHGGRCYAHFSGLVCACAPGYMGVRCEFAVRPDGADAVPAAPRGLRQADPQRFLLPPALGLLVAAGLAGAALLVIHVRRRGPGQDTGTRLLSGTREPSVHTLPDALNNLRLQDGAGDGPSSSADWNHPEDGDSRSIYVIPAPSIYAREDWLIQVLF
Nature of the experiment: flow cytometry (FACS) on CHO cells expressing mouse DLL3. On the procedure:
(§1) Additional experiments were carried out to further characterize the binding properties of the anti-DLL3 constructs. Binding properties tested include dissociation constant (KD), off-rate (koff), binding to DLL3 protein by ELISA and binding to CHO cells expressing human, cyno or mouse DLL3. To obtain off-rate (koff), human biotinylated DLL3 was immobilized on Octet SA tips, and cynomolgus or mouse DLL3 was immobilized on Octet AR2G tips. For each DLL3 protein, the binding to a dilution series of each anti-DLL3 construct was measured using Fortebio Octet Red. The dissociation constant (KD), off-rate (koff) and other kinetic parameters for each anti-DLL3 construct were calculated using a 1:1 binding model. In addition, binding of these anti-DLL3 constructs to CHO cells expressing human, cyno or mouse DLL3 protein was analyzed using flow cytometry (FACS).
In general terms: In flow cytometry, cells or beads pass a laser one at a time.

Experiment [1] concerns the target T3, DLL3 target antigen coated on Octet SA tips (binning experiment) (Homo sapiens (Human), UniProt Q9NYJ7 27-492, Probably biotinylated for capture on streptavidin (SA) tips. The site is not stated.).
T3 sequence: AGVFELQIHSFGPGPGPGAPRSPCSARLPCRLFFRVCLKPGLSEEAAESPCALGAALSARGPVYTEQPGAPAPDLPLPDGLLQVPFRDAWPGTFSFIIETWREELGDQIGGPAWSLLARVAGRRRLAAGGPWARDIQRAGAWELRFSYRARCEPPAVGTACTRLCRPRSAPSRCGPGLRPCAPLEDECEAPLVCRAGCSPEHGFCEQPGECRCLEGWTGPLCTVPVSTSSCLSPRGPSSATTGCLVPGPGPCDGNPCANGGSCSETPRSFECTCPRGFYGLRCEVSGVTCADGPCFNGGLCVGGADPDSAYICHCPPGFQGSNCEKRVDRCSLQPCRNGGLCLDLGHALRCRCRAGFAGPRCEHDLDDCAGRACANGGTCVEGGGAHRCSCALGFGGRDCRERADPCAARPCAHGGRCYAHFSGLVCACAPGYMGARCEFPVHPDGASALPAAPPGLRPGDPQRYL
Nature of the experiment: Octet binning on DLL3-coated SA tips; competitor: 3HCE4. The procedure:
(§2) Antibody binning experiments were carried out for 5 anti-DLL3 VHHs and an anti-human DLL3 BiTE (SEQ ID NO: 756). The target antigen was coated on a series of Octet SA tips. Each series of tips was first soaked in a periplasmic extract containing one specific VHH. After the response signals reached saturation, the tips were transferred to a mix of PEs containing again the first VHH (at the same concentration) plus a different VHH (termed secondary VHH) for each tip of the series. Secondary VHH that still bind the target antigen in the presence of the first VHH will show an increased response, as compared to the binding response of the first VHH alone. This was repeated for each VHH as primary VHH until all VHH were tested against each other in both directions (as primary and as secondary binder). From the response data, the bins were deduced for each VHH. 2HCE117 and 3HCE4 show competition with the human DLL3 BiTEs, whereas 3HCE56 and 3HCE87 show a partial competition.

Experiment [2] addresses T3, DLL3 target antigen coated on Octet SA …. Kind of experiment: Octet binning on DLL3-coated SA tips; competitor: 2HCE27. On the procedure:
as §2

For experiment [3] the target is unchanged. Nature of the experiment: Octet binning on DLL3-coated SA tips; competitor: 3HCE56. On the procedure:
as §2

For experiment [4] the target is unchanged. Kind of experiment: Octet binning on DLL3-coated SA tips; competitor: 3HCE87. On the procedure: as §2
Experiment [5] shares this target. Kind of experiment: Octet binning on DLL3-coated SA tips; competitor: 2HCE117. On the procedure: as §2
Experiment [6] shares this target. Kind of experiment: Octet binning on DLL3-coated SA tips; competitor: DLL3 BiTEs. On the procedure:
as §2

The target of another experiment is T4, DLL3 (ELISA DLL3).
T4 construct: also called DLL3 protein in ELISA
T4 chain: T3 sequence
Nature of the experiment: ELISA, ratio of the signal on DLL3 to the signal on the control. Background: ELISA stands for enzyme-linked immunosorbent assay.

Experiment [7] has as its target T5, recombinant human DLL3 protein (human, UniProt Q9NYJ7 27-492, limits assumed).
T5 construct: also called rhu DLL3; human biotinylated DLL3
T5 sequence (looked up): T3 sequence
Nature of the experiment: Fortebio Octet Red, DLL3 immobilised on tips, dilution series of the VHH, 1:1 binding model; KD error 1.90E-10; Full R2 0.9862. The procedure: as §1

The target in experiment [8] is T5, recombinant human DLL3 protein. Nature of the experiment: Fortebio Octet Red, DLL3 immobilised on tips, dilution series of the VHH, 1:1 binding model; kon error 5.82E+02; Full R2 0.9862. On the procedure:
as §1

For experiment [9] the target is unchanged. Nature of the experiment: Fortebio Octet Red, DLL3 immobilised on tips, dilution series of the VHH, 1:1 binding model; koff error 4.12E-06; Full R2 0.9862. The procedure: as §1

B1: 3HCE56 anti-DLL3 VHH (VHH)
VHH: QVQLQESGGGLVQAGGSLRLSCAASGRTFSVDAMGWLRQAPGKEREFVVVIDWTGGSTAYADSVKGRFTISRDNARNTVYLQMNNLKPEDTGVYYCAARERSRTAYDYWGQGTQVTVSS
notes: In the binning assay it was used as a periplasmic extract
Usually Kd stands for the constant that tells how readily two partners part at equilibrium. The term kon denotes the second-order rate constant of association. What is called koff is a measure of how fast the partners let go of each other. B1: the binding result with mouse DLL3 protein and in the experiment with mouse DLL3 on CHO cells was “binds” in each case. For the same molecule, the “binning response (unit not given)” value in experiment [1] was -79.6; in [2], -3.58; in experiment [3], 0; in experiment [4], -99.1; in experiment [5], 1110; in experiment [6] it was 44.1. In addition, the DLL3 / control with DLL3 (ELISA DLL3) amounted to 18.5. In addition, the Kd in experiment [7] is 21.3 nM. Moreover, the on-rate (kon) in [8] came to 68500 M⁻¹ s⁻¹. Moreover, the dissociation rate constant (koff) in [9] came out at 0.00146 s⁻¹.

(Values after patent US20230227577A1 (MYTHIC THERAPEUTICS, published 2023).)
